This series can be described thus: protein stability index of a GFP-peptide fusion (GPS, HEK-293T) (PSI 1-6); higher = more stable.
[1] abbreviates: treatment: DMSO, c terminus: a fixed tail appended.
[2] abbreviates: treatment: MLN4924 1 uM, 8 h, c terminus: a fixed tail appended.
The mark [3] stands for this setting: treatment: DMSO, c terminus: native.
The mark [4] stands for this setting: treatment: MLN4924 1 uM, 8 h, c terminus: native.

± gives the standard deviation.
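Further: 24-mer peptide tiles fused after GFP, lentivirally expressed, FACS-sorted into six equal bins by GFP/DsRed ratio, decoded by Illumina sequencing, PSI is the read-weighted mean bin number.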

AAAEFSSLLRRIKGKLFTWNILKT [SLC35F2]: the protein stability index under setting [1] came to 3.05 ± 0.56 and the protein stability index under setting [2] turned out to be 2.94 ± 0.28.
For the sequence AAAGAVGLERRDWSPSPPATPEQG [SPDEF], the protein stability index reads like this: under setting [1], 5.09 ± 0.26; under setting [2], 5.18 ± 0.17.
AADVWSLGVALFTMLAGHYPFQDS [TRIB3] returned a protein stability index under setting [1] of 2.96 ± 0.098 and a protein stability index under setting [2] of 2.94 ± 0.2.
Take AAKMYHQLKKCETRKLSPGKKRCK [SMG5]: the protein stability index reads like this: under setting [1], 3.92 ± 0.35; under setting [2], 4.07 ± 0.37.
AANVVSAKRNRLAPAHVDEQVFLY [ZBED1]: the protein stability index is, setting by setting: under setting [1], 2.55 ± 0.12; under setting [2], 2.47 ± 0.27.
On to AASLAGCLGALCENTCLLRGFSGG [TSPAN10], for which the protein stability index under setting [1] amounted to 2.22 ± 0.57 and the protein stability index under setting [2] worked out at 2.37 ± 0.58.
As to ADFGSATFDHEHHTTIVATRHYRP [CLK3], the protein stability index by setting is: under setting [1], 3.79 ± 0.21; under setting [2], 3.92 ± 0.29.
Turning to ADGQRHHSKLLVSGFWGVARHFNY [DHCR7], the protein stability index reads like this: under setting [1], 2.27 ± 0.43; under setting [2], 2.14 ± 0.27.
In the same order, the values of ADIPQDQLVVMHPTPQVDELDILP [BTBD10] are 5.11 ± 0.17 and 5.24 ± 0.15.
With ADSEQADIARMLYKDTCHELDELQ [ZMYND11], the protein stability index under setting [1] came to 5.14 ± 0.24 and the protein stability index under setting [2] worked out at 4.99 ± 0.2.
Taken in the same sequence, the figures for ADSFESSDSLLQSWNSQSSLLDVQ [ETS2] were 4.38 ± 0.12 and 4.56 ± 0.12.
As for AEKKREAKQRAKEAQERELRKREK [LRRC59], the protein stability index is 5.38 ± 0.12 under setting [1] and 5.33 ± 0.11 under setting [2].
For the sequence AEKLKVQALKDRGLSIPRADTLDE [LSM1], the protein stability index is, setting by setting: under setting [1], 4.93 ± 0.3; under setting [2], 4.98 ± 0.22.
In the case of AEVSVISEADPQALLQAMKDLDGM [FBF1], the protein stability index reads like this: under setting [1], 4.52 ± 0.19; under setting [2], 4.36 ± 0.2.
As to AFADIIHSLKESGQLWLDAYLHQ [FADS1], the protein stability index came to 2.7 ± 0.78 under setting [3] and 2.49 ± 0.58 under setting [4].
AFVSNSPKLFCPKNRSFDIDAIYS [PLD5] registered a protein stability index under setting [1] of 2.15 ± 0.8 and a protein stability index under setting [2] of 2.51 ± 0.69.
Regarding AGCCQVFDALDDYEHHYHTLHGNV [ZNF511], the protein stability index under setting [1] was 2.84 ± 0.35 and the protein stability index under setting [2] was 2.88 ± 0.23.
With AGDVIFLLSRINKDWLEGTVRGAT [NCF4], the protein stability index reads like this: under setting [1], 3.21 ± 0.31; under setting [2], 3.2 ± 0.4.
For the sequence AGGSARRPDTGDDAAGHGFCYCAG [GMCL1], the protein stability index runs as follows: under setting [1], 4.11 ± 0.46; under setting [2], 4.13 ± 0.19.
AGKALVISGREVFEFRPELVNDDD [ZC3H15] had a protein stability index under setting [1] of 4.21 ± 0.57 and a protein stability index under setting [2] of 4.23 ± 0.35.
Taken in the same sequence, the figures for AGRNVLRWDLSPEQIKTRTEELIV [NLN] were 2.52 ± 0.34 and 3.23 ± 0.47.
AGRPRAERRPRRVEAERPHSLIGV [FAM189A2] yielded a protein stability index under setting [1] of 4.05 ± 0.15 and a protein stability index under setting [2] of 3.94 ± 0.21.
With AGTPGYLSPEVLRKDPYGKPVDMW [CAMK2D], the protein stability index was 3.34 ± 0.5 under setting [1] and 3.25 ± 0.42 under setting [2].
As for AIRRRNVRGEDSGRKPERRRLKTT [DAPK3], the protein stability index was 4.644 ± 0.043 under setting [1] and 4.69 ± 0.9 under setting [2].
Regarding AKARDLYKGRQLQGCPGAKKHEFL [SMOC2], the protein stability index was found to be 3.03 ± 0.3 under setting [1] and 3.2 ± 0.34 under setting [2].
On to AKGKVQAELSQPLTAGGAISELL [RBBP5], for which the protein stability index runs as follows: under setting [3], 4.18 ± 0.3; under setting [4], 3.91 ± 0.34.
Regarding AKLALFYDWLFFSPDKDSIMNIEP [INTS3], the protein stability index under setting [1] was 2.04 ± 0.34 and the protein stability index under setting [2] stood at 1.9 ± 0.43.
In the case of AKMLLHEGQHPAQLRSDVCTPGGT [PYCR3], the protein stability index reads like this: under setting [1], 4.29 ± 0.5; under setting [2], 4.58 ± 0.9.
In the same order, the values of AKNLQEAEEWYKSKYADLSDAANR [PRPH] are 4.43 ± 0.18 and 4.48 ± 0.22.
Taken in the same sequence, the figures for AKVKLVFVEDQAVVETVFFLTSRT [ZSWIM9] were 3.31 ± 0.38 and 3.01 ± 0.5.
Regarding ALATRALPCPAHVVFRYQGVRMS [FCHSD1], the protein stability index came to 3.1 ± 0.67 under setting [3] and 2.58 ± 0.84 under setting [4].
As to ALLDSLPPPVESELALFQMSVLWL [KLHL14], the protein stability index is, setting by setting: under setting [1], 2.45 ± 0.23; under setting [2], 2.03 ± 0.19.
In the same order, the values of ALSTMGTLICRKLGGVKKSATLRS [TPD52L3] are 2.6 ± 0.2 and 2.67 ± 0.31.
For the sequence AMFRLEHGEADRSTLKKALPTLSH [YJU2B], the protein stability index runs as follows: under setting [1], 3.33 ± 0.16; under setting [2], 3.38 ± 0.17.
On to AMPDPTVPDSDIKALTTLCDLADR [ESRRG], for which the protein stability index is 5.11 ± 0.28 under setting [1] and 5.15 ± 0.16 under setting [2].
For the sequence ANAFQQEAQTSGKERLLLSAAVPA [CHIT1], the protein stability index is, setting by setting: under setting [1], 4.03 ± 0.33; under setting [2], 4.18 ± 0.28.
As for ANQLIDIISSDELNVRSEEQVFNA [KLHL20], the protein stability index under setting [1] worked out at 4.42 ± 0.21 and the protein stability index under setting [2] came to 4.34 ± 0.25.
Taken in the same sequence, the figures for ANSDRASIGRRRTELRRSGSSRSP [PLEKHN1] were 4.79 ± 0.3 and 5.2 ± 0.21.
As for ANTIRGGGCYFGPDVTQQLLQKYN [PPEF2], the protein stability index came out at 2.44 ± 0.35 under setting [1] and 2.59 ± 0.41 under setting [2].
As to APLGYKEPERQVQHEESTEGEADH [UFD1], the protein stability index under setting [1] is 5.55 ± 0.22 and the protein stability index under setting [2] came to 5.5 ± 0.3.
For the sequence APLVQPSKNDNGKPDSVGLPPCAV [PCMTD1], the protein stability index under setting [1] amounted to 5.09 ± 0.15 and the protein stability index under setting [2] stood at 5.07 ± 0.22.
With APNAWQVIKGVLFRIFIIWAISSW [CLPTM1], the protein stability index runs as follows: under setting [1], 2.94 ± 0.19; under setting [2], 2.89 ± 0.53.
In the same order, the values of AQDSIELLTTSGIQFKKHEEEGIE [CNOT7] are 5.46 ± 0.24 and 5.48 ± 0.34.
As for AQPNYIPTQQDVLRTRVKTTGIVE [GNAI1], the protein stability index by setting is: under setting [1], 4.19 ± 0.23; under setting [2], 4.27 ± 0.36.
As to AQRSAHCSRPSGSSSSSGVLMVGP [CSNK1G1], the protein stability index was determined as 3.65 ± 0.24 under setting [1] and 3.84 ± 0.14 under setting [2].
Sequence AQTTSEAAMEGATLDQTTSEEAPG [HDAC6] returned a protein stability index under setting [1] of 5.64 ± 0.28 and a protein stability index under setting [2] of 5.54 ± 0.24.
Sequence ARDRQPSDFKTDKEGGQAGSGQRV [ELOA2] came in with a protein stability index under setting [1] of 5.26 ± 0.33 and a protein stability index under setting [2] of 5.26 ± 0.26.
In the case of AREVKLLLLGAGESGKSTIVKQMK [GNAI1], the protein stability index reads like this: under setting [1], 2.73 ± 0.25; under setting [2], 2.62 ± 0.26.
Consider ARGRHVGSSETNLLQHLLEACGRC [PYCR3], for which the protein stability index stood at 2.71 ± 0.88 under setting [1] and 3.17 ± 1.4 under setting [2].
On to ARLMLESEYRSDIINAKSNDGWTP [ASB7], for which the protein stability index is, setting by setting: under setting [1], 2.65 ± 0.28; under setting [2], 3.15 ± 0.15.
Taken in the same sequence, the figures for ARNNNDPGRLTEALCLEVRPTYFE [RNF180] were 4.97 ± 0.23 and 4.96 ± 0.18.
As for ARRESGGRPIKPPKKDLEDGEVPQ [BRD3], the protein stability index is, setting by setting: under setting [1], 5.58 ± 0.21; under setting [2], 5.38 ± 0.32.
For ASEEGSESEGSESSGRSCRNERSI [SMG5], the protein stability index is, setting by setting: under setting [1], 5.54 ± 0.3; under setting [2], 5.45 ± 0.31.
Regarding ASEYCPGKLSWGTMARALGRFKLS [WDR88], the protein stability index reads like this: under setting [1], 2.49 ± 0.42; under setting [2], 2.67 ± 0.29.
In the same order, the values of ASRTSTIFLNGNRERPLNVFCDME [TNXB] are 3.09 ± 0.42 and 3.07 ± 0.34.
Consider ASSPSIRQKKLMHKLQEEKAFREE [CCDC70], for which the protein stability index runs as follows: under setting [1], 4.24 ± 0.17; under setting [2], 4.66 ± 0.14.
Turning to ATFVDKKRDLLGALKYWKKAMNMR [FEM1C], the protein stability index under setting [1] amounted to 1.95 ± 0.17 and the protein stability index under setting [2] was 2.13 ± 0.46.
ATGFHFNAMTCEGCKGFFRRSMKR [VDR]: the protein stability index is, setting by setting: under setting [1], 2.63 ± 0.18; under setting [2], 2.9 ± 0.21.
As for ATTISTSEDGSYGTDVTRCICGFT [KMT2E], the protein stability index was 3.46 ± 0.21 under setting [1] and 3.6 ± 0.39 under setting [2].
Take AVEGLTEAEEEELRAELTKVEEEI [TPD52L2]: the protein stability index runs as follows: under setting [1], 5.6 ± 0.25; under setting [2], 5.54 ± 0.12.
As to AYDWVGRPIPTPVGSVHVDSGASA [CSNK1G1], the protein stability index is, setting by setting: under setting [1], 3.94 ± 0.29; under setting [2], 4.08 ± 0.16.
On to AYDYAKEVNSAEELEGLIADPDEM [FEM1C], for which the protein stability index came to 5.68 ± 0.13 under setting [1] and 5.51 ± 0.56 under setting [2].
For the sequence CALGDHGCEHSCVSSEDSFVCQCF [MATN2], the protein stability index turned out to be 4.25 ± 0.35 under setting [1] and 4.33 ± 0.3 under setting [2].
Regarding CEERWLVIDRKVYNISEFTRRHPG [FADS1], the protein stability index is, setting by setting: under setting [1], 2.1 ± 0.3; under setting [2], 2.15 ± 0.33.
CEGKPYNQKSDIWALGCVLYELAS [NEK8] registered a protein stability index under setting [1] of 3.08 ± 0.74 and a protein stability index under setting [2] of 2.88 ± 0.72.
For the sequence CFGLQPGCLLPDGSRMMAVAALVV [NLN], the protein stability index is, setting by setting: under setting [1], 2.47 ± 0.23; under setting [2], 2.75 ± 0.34.
With CHICHKKLYTGPGLAIHCMQVHKE [ZNF207], the protein stability index by setting is: under setting [1], 3.07 ± 0.27; under setting [2], 3.25 ± 0.39.
As to CHPVERGIKSKEAEEYRLKEHYLT [PSD2], the protein stability index turned out to be 4.21 ± 0.093 under setting [1] and 4.1 ± 0.2 under setting [2].
Turning to CKKLSLELGGKNPAIIFEDANLDE [ALDH8A1], the protein stability index was 4.4 ± 0.11 under setting [1] and 4.32 ± 0.26 under setting [2].
With CLRDDVVFFIYLYQRWIYRVDPTR [CLPTM1], the protein stability index is, setting by setting: under setting [1], 2.77 ± 0.35; under setting [2], 2.81 ± 0.48.
For the sequence CLSCRLFYFKLTDLYKKVKKNSSP [CRY1], the protein stability index runs as follows: under setting [1], 2.42 ± 0.11; under setting [2], 2.08 ± 0.44.
Turning to CPEGLEELLSAPPPDLGAQRRHGW [SPSB2], the protein stability index under setting [1] amounted to 3.8 ± 0.34 and the protein stability index under setting [2] is 3.83 ± 0.25.

The values above are taken from the supplement of paper PMC10567573.
